In IntAct's records for PubMed 20006610:

B1: Retinol dehydrogenase 12 (Homo sapiens), Q96NR8 (parent)
chain: MLVTLGLLTSFFSFLYMVAPSIRKFFAGGVCRTNVQLPGKVVVITGANTGIGKETARELASRGARVYIACRDVLKGESAASEIRVDTKNSQVLVRKLDLSDTKSIRAFAEGFLAEEKQLHILINNAGVMMCPYSKTADGFETHLGVNHLGHFLLTYLLLERLKVSAPARVVNVSSVAHHIGKIPFHDLQSEKRYSRGFAYCHSKLANVLFTRELAKRLQGTGVTTYAVHPGVVRSELVRHSSLLCLLWRLFSPFVKTAREGAQTSLHCALAEGLEPLSGKYFSDCKRTWVSPRARNNKTAERLWNVSCELLGIRWE

Variants of: B1
Settings: with ubc_human UBC

effect of a mutation on the interaction | Variant
increasing interaction | I51N

Variants of: B1
Settings: with ubc_human UBC
Remark: another data set of the same source

effect of a mutation on the interaction | Variant
increasing interaction | T49M
